# Reference: publication doi:10.1101/2024.11.11.622897
# T1: DdaA (A. baumannii), AbDdaA (Acinetobacter baumannii ATCC 17978, UniProt V5VBS3 1-335)
# T1 sequence: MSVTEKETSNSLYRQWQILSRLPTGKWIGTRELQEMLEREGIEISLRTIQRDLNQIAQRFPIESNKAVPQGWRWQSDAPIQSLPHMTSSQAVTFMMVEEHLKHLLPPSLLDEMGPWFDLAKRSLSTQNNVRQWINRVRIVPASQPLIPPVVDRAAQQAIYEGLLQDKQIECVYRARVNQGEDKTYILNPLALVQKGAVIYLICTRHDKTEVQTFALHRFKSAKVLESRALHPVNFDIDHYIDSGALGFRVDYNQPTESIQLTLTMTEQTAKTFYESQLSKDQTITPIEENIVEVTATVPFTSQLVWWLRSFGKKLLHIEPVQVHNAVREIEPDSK
# B1: recA promoter motif WT (AR-DDRM) (dsDNA)
# DNA 1: TTTCCGGTCTGGGCGACACAATATGACGTGTAATTTTAACC
# DNA 2: GGTTAAAATTACACGTCATATTGTGTCGCCCAGACCGGAAA
# Target: T1, DdaA (A. baumannii), AbDdaA
# Assay: EMSA
binder,measurement,value
B1,binding result,binds
